Test results reported in the supplement of paper PMC10126150.
± gives the standard deviation of the averaged measurements.

Tested on: ATP
Assay: switch fluorescence ratio, 500 uM ATP over buffer (Cy3 cluster intensity, sum of 5 cycles each) (fold (ratio)); higher = stronger signal-on switching upon ATP binding; sequences stand for … in TCGTCGGCAGCGTCAGATGTGTATAAGAGACAGTTTTTTTTTTTTTTTTTTTTTTTTT…TC
Details: aptamer strand: ATP DNA aptamer (quencher-CACCTGGGGGAGTATTGCGGAGGAAGG + anchor), 100 nM annealed; ATP concentration: 500 uM
How it was run: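 Clusters with intensities outside 100-1000 RFU were excluded. The remaining Cy3-labelled switching-strand clusters on a modified Illumina MiSeq flow-cell had been annealed to 100 nM quencher-labelled ATP aptamer and imaged in selection buffer, then after 15 min with 500 uM ATP at 22 °C, for five cycles separated by NaOH stripping and re-annealing. The fluorescence ratio, averaged per switch-domain sequence, is each cluster's summed target-cycle Cy3 intensity over its summed buffer-cycle Cy3 intensity.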
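Note: ATP exposure 15 min at 22 °C before imaging.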

| Sequence | switch fluorescence ratio |
| --- | --- |
| GCGTCGAAGG | 0.981 ± 0.047 |
| GCGTGCGGGA | 1.02 ± 0.017 |
| GCGTGGGAGG | 1.018 ± 0.0053 |
| GCGTGGGATA | 1.03 ± 0.038 |
| GCGTGGGCGA | 1.03 ± 0.045 |
| GCGTGGGGCG | 0.996 ± 0.011 |
| GCGTGGTCTG | 0.971 ± 0.04 |
| GCGTGTGTTC | 1.08 ± 0.049 |
| GCGTGTTCGT | 1.031 ± 0.0084 |
| GCGTGTTGTG | 1.02 ± 0.018 |
| GCGTTAAGGA | 0.9835 ± 0.0056 |
| GCGTTACGGT | 1.02 ± 0.0057 |
| GCGTTATCTT | 0.99586 ± 0.00081 |
| GCGTTATTGG | 1.03 ± 0.018 |
| GCGTTCGGGA | 0.984 ± 0.021 |
| GCGTTCTCGC | 0.968 ± 0.016 |
| GCGTTGAGCT | 0.987 ± 0.023 |
| GCGTTGATGA | 1.01 ± 0.019 |
| GCGTTGTGGG | 1.05 ± 0.024 |
| GCGTTTAGAT | 1.02 ± 0.013 |
| GCGTTTATGG | 1 ± 0.02 |
| GCGTTTGAGG | 0.981 ± 0.017 |
| GCGTTTGGG | 1.14 ± 0.15 |
| GCGTTTGGGG | 1.01 ± 0.043 |
| GCGTTTTACT | 1.034 ± 0.0051 |
| GCGTTTTTCG | 0.977 ± 0.042 |

| Sequence | switch fluorescence ratio |
| --- | --- |
| GCTAAAACCG | 1.06 ± 0.052 |
| GCTAAAGGGA | 1.03 ± 0.042 |
| GCTAACCGGG | 1 ± 0.0097 |
| GCTAACTAGG | 1.038 ± 0.0087 |
| GCTAAGGGGC | 1.03 ± 0.018 |
| GCTAAGTCGG | 0.982 ± 0.0085 |
| GCTAAGTTTA | 0.996 ± 0.025 |
| GCTAATTGGG | 1.004 ± 0.0021 |
| GCTACACGAA | 1.04 ± 0.027 |
| GCTACATGGG | 1.02 ± 0.015 |
| GCTACCTGGA | 1.19 ± 0.016 |
| GCTACGCGCT | 1.36 ± 0.021 |
| GCTAGATGTA | 1.02 ± 0.015 |
| GCTAGTGGGG | 0.999 ± 0.018 |
| GCTATAATCG | 1.073 ± 0.0027 |
| GCTATCGGTT | 1.01 ± 0.024 |
| GCTATCTGCC | 1.075 ± 0.01 |
| GCTATGGTTA | 1 ± 0.013 |
| GCTATGTGTA | 0.9748 ± 0.0051 |
| GCTATTGGGG | 0.993 ± 0.014 |
| GCTATTGGTA | 1.01 ± 0.03 |
| GCTATTGTTG | 1.03 ± 0.021 |
| GCTATTTAGT | 1.0108 ± 0.00043 |
| GCTATTTTTG | 0.999 ± 0.04 |
| GCTCAACTAA | 1.02 ± 0.02 |
| GCTCAAGCTA | 1.15 ± 0.021 |

| Sequence | switch fluorescence ratio |
| --- | --- |
| GCTCCTCACA | 1.67 ± 0.2 |
| GCTCGAAATG | 1.07 ± 0.031 |
| GCTCGAACGA | 0.995 ± 0.013 |
| GCTCGAAGTT | 0.978 ± 0.029 |
| GCTCGCAGAT | 1.21 ± 0.042 |
| GCTCGCCTGA | 0.995 ± 0.025 |
| GCTCGGGGGC | 1.008 ± 0.0081 |
| GCTCGGGTGT | 1.15 ± 0.33 |
| GCTCGGTTAG | 1.01 ± 0.018 |
| GCTCGGTTG | 1.01 ± 0.022 |
| GCTCGTATTA | 1 ± 0.016 |
| GCTCTATTTT | 0.997 ± 0.019 |
| GCTCTGGGTA | 1.05 ± 0.0082 |
| GCTCTTAGTG | 0.9894 ± 0.0032 |
| GCTCTTGATG | 0.98 ± 0.041 |
| GCTGACGGTT | 0.997 ± 0.024 |
| GCTGACTTGG | 0.9714 ± 0.0081 |
| GCTGAGCGGA | 0.995 ± 0.035 |
| GCTGAGGATA | 0.984 ± 0.013 |
| GCTGATATAA | 1.01 ± 0.019 |
| GCTGATCTTA | 0.998 ± 0.034 |
| GCTGATTTTT | 0.994 ± 0.025 |
| GCTGCAGGGG | 1.144 ± 0.0063 |
| GCTGCCACTA | 1.003 ± 0.004 |
| GCTGCCTAAA | 0.9809 ± 0.0019 |
| GCTGCGAGGT | 1.012 ± 0.0056 |

| Sequence | switch fluorescence ratio |
| --- | --- |
| GCTGCTAATA | 1.039 ± 0.01 |
| GCTGCTGCAC | 1.01 ± 0.049 |
| GCTGGAGTAT | 0.987 ± 0.026 |
| GCTGGCAATT | 1.027 ± 0.0069 |
| GCTGGGAATG | 0.98 ± 0.033 |
| GCTGGGAATT | 1 ± 0.016 |
| GCTGGGACGT | 1 ± 0.025 |
| GCTGGGACTT | 1.004 ± 0.0078 |
| GCTGGGAGGA | 1.02 ± 0.04 |
| GCTGGGATTG | 1.01 ± 0.035 |
| GCTGGGGCCA | 1.023 ± 0.0017 |
| GCTGGGGGAT | 1 ± 0.044 |
| GCTGGGGGCG | 0.987 ± 0.025 |
| GCTGGGTAGT | 1.01 ± 0.022 |
| GCTGGTGATC | 1.02 ± 0.012 |
| GCTGGTGCAC | 1.01 ± 0.026 |
| GCTGGTTGTT | 1.03 ± 0.041 |
| GCTGTAAGTT | 0.9897 ± 0.0067 |
| GCTGTAATCT | 0.999 ± 0.027 |
| GCTGTAGCGG | 1.02 ± 0.031 |
| GCTGTATGTT | 0.974 ± 0.022 |
| GCTGTATTAA | 0.997 ± 0.038 |
| GCTGTGGATG | 1.02 ± 0.024 |
| GCTGTGGGTG | 1 ± 0.021 |
| GCTGTGTGGC | 1.01 ± 0.047 |
| GCTGTGTGTC | 1.006 ± 0.0024 |

| Sequence | switch fluorescence ratio |
| --- | --- |
| GCTGTGTTTT | 1 ± 0.034 |
| GCTGTTCAAG | 1 ± 0.026 |
| GCTGTTCCTC | 1.07 ± 0.011 |
| GCTGTTGGCG | 0.9728 ± 0.0043 |
| GCTGTTTCGG | 0.981 ± 0.01 |
| GCTGTTTTGT | 1.004 ± 0.0092 |
| GCTTAAAAAT | 0.986 ± 0.095 |
| GCTTAAAGAC | 1.1 ± 0.013 |
| GCTTAAGTTA | 1 ± 0.057 |
| GCTTAATGTG | 0.968 ± 0.027 |
| GCTTACAACG | 1.02 ± 0.029 |
| GCTTACTCTG | 1.62 ± 0.085 |
| GCTTACTGCT | 0.947 ± 0.029 |
| GCTTATAGGC | 0.97 ± 0.032 |
| GCTTATCAGC | 0.991 ± 0.013 |
| GCTTATGGGA | 1 ± 0.039 |
| GCTTATTCAG | 0.976 ± 0.013 |
| GCTTATTGTA | 0.9813 ± 0.0081 |
| GCTTCAAGAC | 1.58 ± 0.0071 |
| GCTTCAGAGT | 1 ± 0.02 |
| GCTTCAGGAG | 1.27 ± 0.024 |
| GCTTCAGGCC | 1.02 ± 0.022 |
| GCTTCAGTAG | 1.11 ± 0.02 |
| GCTTCTGCGT | 1.02 ± 0.033 |
| GCTTCTTTTG | 1.09 ± 0.15 |
| GCTTGAAATT | 0.986 ± 0.062 |

| Sequence | switch fluorescence ratio |
| --- | --- |
| GCTTGCTCCG | 4.46 ± 0.87 |
| GCTTGGAGGG | 0.983 ± 0.027 |
| GCTTGGATCC | 0.966 ± 0.022 |
| GCTTGGATTG | 1.01 ± 0.054 |
| GCTTGGGTGC | 1.04 ± 0.067 |
| GCTTGTCTCG | 1 ± 0.053 |
| GCTTGTGTGA | 0.999 ± 0.01 |
| GCTTGTTACG | 0.98379 ± 0.00012 |
| GCTTGTTGGG | 1.02 ± 0.038 |
| GCTTTATGTA | 0.975 ± 0.025 |
| GCTTTCATTG | 1.014 ± 0.0046 |
| GCTTTCCTTA | 0.991 ± 0.04 |
| GCTTTGGTGA | 0.991 ± 0.019 |
| GCTTTGGTTT | 0.983 ± 0.022 |
| GCTTTGTTGG | 0.984 ± 0.035 |
| GCTTTTAGAT | 0.9794 ± 0.0028 |
| GCTTTTAGGA | 1 ± 0.038 |
| GCTTTTCATT | 0.988 ± 0.038 |
| GCTTTTCTTG | 1.01 ± 0.011 |
| GCTTTTGGAG | 1.008 ± 0.0047 |
| GCTTTTGGCC | 0.971 ± 0.02 |
| GGAAAAAGGG | 1 ± 0.02 |
| GGAAAAGAGC | 0.991 ± 0.049 |
